Reference: patent US9926377B2, “Anti-GPC3 antibodies and immunoconjugates” (GENENTECH, INC., priority 2014, dated 2018)
One block for each molecule: values may come before it.

Assays:
human GPC3 [1] = molecular target: T1, human GPC3 (Homo sapiens, UniProt P51654); experiment: FACS binding to huGPC truncation constructs on 293 cells; details: huGPC(aa359-420) on 293 cells
T1 construct: C-terminal glycophosphatidylinositol anchor (GPI link) (C); expressed in transfected cells; host or cells: 293 cells
T1 sequence (P51654 359-420): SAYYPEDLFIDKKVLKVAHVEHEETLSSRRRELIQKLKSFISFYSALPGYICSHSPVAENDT
Excerpt: (§1) C-terminal truncation constructs of huGPC(aa359-589) were made to further refine the epitopes for antibodies 4A11 and 15G1. Three different […] truncations were made, comprising amino acids 359 to 420 of human GPC3, amino acids 359 to 470 of human GPC3, and amino acids 359 to 509 of human GPC3. The three C-terminal truncations each comprised an HSV N-terminal signal sequence (SS) and gD sequence (SEQ ID NO: 41) and C-terminal glycophosphatidylinositol anchor (GPI link). The huGPC truncation constructs were expressed on the surface of 293 cells and antibody binding was determined by FACS. An anti-gD was used as a positive control. Vector-transfected 293 cells were used as a negative control.

human GPC3 [2] = molecular target: T2, human GPC3 (Homo sapiens, UniProt P51654); experiment: as above; details: huGPC(aa359-470) on 293 cells
T2 construct: C-terminal glycophosphatidylinositol anchor (GPI link) (C); expressed in transfected cells; host or cells: 293 cells
T2 sequence (P51654 359-470): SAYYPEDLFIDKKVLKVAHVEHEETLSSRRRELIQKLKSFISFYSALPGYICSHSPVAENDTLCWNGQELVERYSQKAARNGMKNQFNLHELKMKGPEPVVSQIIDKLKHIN
Excerpt: as §1

human GPC3 [3] = molecular target: T3, human GPC3 (Homo sapiens, UniProt P51654); experiment: as above; details: huGPC(aa359-509) on 293 cells
T3 construct: C-terminal glycophosphatidylinositol anchor (GPI link) (C); expressed in transfected cells; host or cells: 293 cells
T3 sequence (P51654 359-509): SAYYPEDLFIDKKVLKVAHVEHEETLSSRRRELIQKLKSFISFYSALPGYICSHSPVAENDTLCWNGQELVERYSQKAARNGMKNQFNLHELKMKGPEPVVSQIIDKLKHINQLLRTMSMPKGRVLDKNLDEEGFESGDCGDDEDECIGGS
Excerpt: as §1

human GPC3 [4] = molecular target: T4, human GPC3 (Homo sapiens, UniProt P51654); experiment: as above; details: huGPC(aa359-559) on 293 cells
T4 construct: C-terminal glycophosphatidylinositol anchor (GPI link) (C); expressed in transfected cells; host or cells: 293 cells
T4 sequence (P51654 359-559): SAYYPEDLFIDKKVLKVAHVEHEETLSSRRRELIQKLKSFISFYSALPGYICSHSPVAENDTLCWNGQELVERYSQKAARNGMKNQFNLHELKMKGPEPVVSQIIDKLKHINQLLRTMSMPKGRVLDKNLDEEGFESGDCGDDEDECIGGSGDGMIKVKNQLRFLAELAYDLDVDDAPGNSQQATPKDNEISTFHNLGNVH
Excerpt: as §1

[5] = system: full-length N-terminal gD-tagged cynomolgus monkey GPC3; experiment: FACS binding to cynomolgus monkey GPC3 on 293 cells; details: cynomolgus monkey GPC3 expressed on the surface of 293 cells
full-length N-terminal gD-tagged cynomolgus monkey GPC3, sequence (as listed by the source): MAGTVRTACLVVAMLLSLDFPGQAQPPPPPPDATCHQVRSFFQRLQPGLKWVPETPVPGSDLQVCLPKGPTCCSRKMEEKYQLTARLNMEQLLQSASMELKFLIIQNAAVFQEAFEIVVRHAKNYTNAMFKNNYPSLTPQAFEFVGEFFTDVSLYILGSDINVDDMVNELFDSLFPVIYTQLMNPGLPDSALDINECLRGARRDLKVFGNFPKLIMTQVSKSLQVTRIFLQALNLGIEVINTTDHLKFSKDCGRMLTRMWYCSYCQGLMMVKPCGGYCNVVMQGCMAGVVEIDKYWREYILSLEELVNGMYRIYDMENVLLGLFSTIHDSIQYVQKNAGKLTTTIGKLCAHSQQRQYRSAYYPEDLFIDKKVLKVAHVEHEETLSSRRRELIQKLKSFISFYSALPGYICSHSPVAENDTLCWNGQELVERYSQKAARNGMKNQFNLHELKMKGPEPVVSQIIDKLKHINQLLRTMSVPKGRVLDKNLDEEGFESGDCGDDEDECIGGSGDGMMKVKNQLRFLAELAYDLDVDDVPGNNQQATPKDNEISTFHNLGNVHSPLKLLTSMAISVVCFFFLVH
cynomolgus monkey GPC3, sequence (as listed by the source): as above
Description: (§2) Antibodies 15G1 and 4A11 were tested for binding to full-length N-terminal gD-tagged cynomolgus monkey GPC3 and full-length N-terminal gD-tagged rat GPC3 expressed on the surface of 293 cells by FACS. Both antibodies bound to cynomolgus monkey GPC3. 15G1, but not 4A11, also bound to rat GPC3. […] The 7H1 epitope is also highly conserved between human, cynomolgus monkey, rhesus macaque, mouse, and rat GPC3, and as discussed above, antibody 7H1 detects human, cynomolgus monkey, rat, and mouse GPC3 by Western blot.

[6] = molecular target: T5, full-length N-terminal gD-tagged rat GPC3 (Rattus norvegicus, UniProt P13265); experiment: FACS binding to rat GPC3 on 293 cells; details: rat GPC3 expressed on the surface of 293 cells
T5 construct: full-length N-terminal gD-tagged rat GPC3 expressed on the surface of 293 cells by FACS; gD (N); expressed in transfected cells; host or cells: 293 cells
T5 sequence (P13265 with tags, fused parts or gaps limits assumed): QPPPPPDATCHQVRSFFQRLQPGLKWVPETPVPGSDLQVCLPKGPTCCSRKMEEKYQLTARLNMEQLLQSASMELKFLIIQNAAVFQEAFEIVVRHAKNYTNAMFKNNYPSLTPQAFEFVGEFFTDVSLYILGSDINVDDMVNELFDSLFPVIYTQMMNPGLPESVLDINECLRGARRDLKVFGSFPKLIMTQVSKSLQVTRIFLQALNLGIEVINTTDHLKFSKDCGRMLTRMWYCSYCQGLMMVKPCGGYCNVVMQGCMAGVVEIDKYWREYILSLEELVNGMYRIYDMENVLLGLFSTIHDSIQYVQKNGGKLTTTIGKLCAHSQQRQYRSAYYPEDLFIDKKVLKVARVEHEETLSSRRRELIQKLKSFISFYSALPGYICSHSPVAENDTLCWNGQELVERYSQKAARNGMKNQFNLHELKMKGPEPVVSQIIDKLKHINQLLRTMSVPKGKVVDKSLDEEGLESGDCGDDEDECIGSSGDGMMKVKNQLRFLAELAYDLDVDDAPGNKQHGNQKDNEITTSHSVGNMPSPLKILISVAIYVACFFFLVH
Description: as §2

GPC3 [7] = molecular target: T6, GPC3 (Homo sapiens, UniProt P51654); experiment: Western blot detection of human GPC3; type: binding
Excerpt: (§3) Antibody 7H1 also detects human, cynomolgus monkey, rat, and mouse GPC3 by Western blot.
Target sequence in this assay (P51654 25-554): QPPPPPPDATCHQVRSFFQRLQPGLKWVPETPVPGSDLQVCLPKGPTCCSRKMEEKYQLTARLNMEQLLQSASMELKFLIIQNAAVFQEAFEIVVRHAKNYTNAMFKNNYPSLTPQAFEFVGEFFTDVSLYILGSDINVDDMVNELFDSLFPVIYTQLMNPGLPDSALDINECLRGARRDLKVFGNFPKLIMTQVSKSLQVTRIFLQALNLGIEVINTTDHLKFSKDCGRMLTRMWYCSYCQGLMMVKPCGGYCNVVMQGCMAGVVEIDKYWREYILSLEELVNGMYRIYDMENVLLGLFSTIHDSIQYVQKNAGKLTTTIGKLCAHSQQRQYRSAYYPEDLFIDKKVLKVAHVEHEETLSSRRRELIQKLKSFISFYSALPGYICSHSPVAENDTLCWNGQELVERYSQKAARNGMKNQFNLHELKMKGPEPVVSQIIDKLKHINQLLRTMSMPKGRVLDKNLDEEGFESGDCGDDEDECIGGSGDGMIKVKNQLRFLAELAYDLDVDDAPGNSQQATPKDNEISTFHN

cynomolgus monkey GPC3 = experiment: Western blot detection of cynomolgus monkey GPC3; type: binding
Excerpt: as §3

rat GPC3 = rat GPC3 (Rattus norvegicus, UniProt P13265); experiment: Western blot detection of rat GPC3; type: binding
rat GPC3, sequence (P13265 with tags, fused parts or gaps limits assumed): as the sequence (P13265 with tags, fused parts or gaps limits assumed) above
Excerpt: as §3

mouse GPC3 = mouse GPC3 (Mus musculus, UniProt Q8CFZ4); experiment: Western blot detection of mouse GPC3; type: binding
mouse GPC3, sequence (Q8CFZ4 25-553): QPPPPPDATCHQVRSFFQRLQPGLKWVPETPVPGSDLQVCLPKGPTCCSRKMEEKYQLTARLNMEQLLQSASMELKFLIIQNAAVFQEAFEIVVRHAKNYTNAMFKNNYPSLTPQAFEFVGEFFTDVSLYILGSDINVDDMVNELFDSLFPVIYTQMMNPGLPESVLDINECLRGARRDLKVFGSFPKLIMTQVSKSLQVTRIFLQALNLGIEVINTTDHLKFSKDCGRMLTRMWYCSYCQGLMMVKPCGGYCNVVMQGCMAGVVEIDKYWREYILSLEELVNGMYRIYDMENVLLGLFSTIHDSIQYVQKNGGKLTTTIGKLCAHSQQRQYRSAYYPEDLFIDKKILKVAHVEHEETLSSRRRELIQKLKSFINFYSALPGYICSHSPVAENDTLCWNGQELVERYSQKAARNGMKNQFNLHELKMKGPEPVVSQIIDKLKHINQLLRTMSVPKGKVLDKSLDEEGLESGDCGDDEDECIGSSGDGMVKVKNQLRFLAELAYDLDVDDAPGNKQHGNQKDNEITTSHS
Excerpt: as §3

biotinylated GPC3 = biotinylated GPC3 (Homo sapiens, UniProt P51654); experiment: Epitope binning competition assay (Octet RED384); type: binding; details: 7H1 or 4G7 as first saturating antibody 10 μg/ml; competing antibodies 5 μg/ml
biotinylated GPC3, sequence (P51654 25-554): as the sequence (P51654 25-554) above
Description: Epitope binning of anti-GPC3 antibodies was performed using a competition assay. Using the Octet RED384 instrument (ForteBio), biotinylated GPC3 was captured onto Streptavidin biosensors at 10 μg/ml for 600 seconds. Binding of the first antibody to saturation was achieved by adding 10 μg/ml for 600 seconds. The same biosensors were dipped into the competing antibodies at 5 μg/ml and binding was measured for 600 seconds. […] Antibody 7H1 was used as the first saturating antibody. A subsequent experiment was performed using antibody 4G7 as the first saturating antibody.

GPC3 [8] = molecular target: T6, GPC3; experiment: Reactivity by immunohistochemistry (IHC); type: binding; design: endogenous in cells
Excerpt: (§4) Positive clones were expanded and re-screened for binding to huGPC3, cynoGPC3, and HepG2 cells by ELISA, FACS, and immunohistochemistry (IHC). Thirteen antibodies were selected and purified, including antibodies 7H1 and 4G7. The heavy and light chain variable region sequences of antibody 7H1 are shown in SEQ ID NOs: 2 and 3, respectively. The heavy and light chain variable region sequences of antibody 4G7 are shown in SEQ ID NOs: 26 and 27, respectively.
as §3
Target sequence in this assay (P51654 25-554): as above

GPC3 [9] = molecular target: T6, GPC3; experiment: Binding to GPC3-expressing cells by FACS; design: endogenous in cells
Excerpt: as §4, §3
Target sequence in this assay (P51654 25-554): as above

GPC3 [10] = molecular target: T6, GPC3; experiment: FACS binding to human GPC3 fragments expressed on 293S cells; design: C-terminal glycophosphatidylinositol anchor (GPI link) (C); expressed in transfected cells; host or cells: 293S cells, transient
Excerpt: (§5) C-terminal truncation constructs of human GPC3 were made to further refine the epitopes for antibodies 7H1 and 4G7. […] The three C-terminal truncations each comprised the GPC N-terminal signal sequence (SS) and C-terminal glycophosphatidylinositol anchor (GPI link). […] See FIG. 7 (Santa Cruz Biotechnology antibody 1G12, which was raised to amino acids 511-580 of human GPC3, was used as a positive control for C-terminal fragment binding). Antibody 7H1 was reformatted as a chimeric antibody with human A118C cysteine-engineered IgG1 and Igκ constant regions (SEQ ID NOs: 42 and 43).

GPC3 [11] = molecular target: T6, GPC3; experiment: Western blot binding to C-terminal truncation constructs of human GPC3; design: C-terminal glycophosphatidylinositol anchor (GPI link) (C); expressed in transfected cells; host or cells: 293S cells, transient
Excerpt: as §5

Binding by FACS (human GPC3 [1]): not
Binding by FACS (human GPC3 [2]): bound
Binding by FACS (human GPC3 [3]): bound
Binding by FACS (human GPC3 [4]): bound
Binding by FACS [6]: bound
B1: 15G1: anti-GPC3 monoclonal antibody; heavy and light chain variable regions SEQ ID NOs: 18 and 19 (antibody, V domains shown)
VH: EVQLLETGGGLVQPGGSRGLSCEGSGFTFSGFWMSWVRQTPGKTLEWIGDINSDGSSINYAPSIKDRFTIFRDNDKSILYLQMTNVRSEDTGTYFCVTTYGDYWGQGTTLTVSS
VL: DIVMTQSQKFMSTSVGDRVSVTCKASQNVGSHVGWYQQKSGQSPKALIYSASNRYIGVPDRFTGSGSGTDFTLTISNVQSEDLAEYFCQQYHIYPYTFGGGTRLEIK
Binding by FACS [5]: bound

Detection by Western blot (GPC3 [7]): detects
Detection by Western blot (rat GPC3): detects
Detection by Western blot (mouse GPC3): detects
Epitope bin (biotinylated GPC3): different epitope bins
Reactivity by IHC (GPC3 [8]; HepG2 cells): react strongly
Reactivity by IHC (GPC3 [8]; JHH cells): react strongly
Reactivity by IHC (GPC3 [8]; cells stably transfected with GPC3): react strongly
Reactivity by IHC (GPC3 [8]; hepatic cancer tissue microarray): react strongly
Reactivity by FACS (GPC3 [9]; 293S cells expressing GPC3): react strongly
Reactivity by FACS (GPC3 [9]; HepG2 X1 cells): react strongly
Binding by FACS (GPC3 [10]; N-terminal fragment, amino acids 25 to 358 of human GPC3, on 293S cells): bind
Binding by FACS (GPC3 [10]; amino acids 25 to 137 of human GPC3, transiently expressed on 293S cells): bind
Binding by FACS (GPC3 [10]; amino acids 25 to 247 of human GPC3, transiently expressed on 293S cells): bind
Binding by Western blot (GPC3 [11]; amino acids 25 to 137 of human GPC3): bind
Binding by Western blot (GPC3 [11]; amino acids 25 to 247 of human GPC3): bind
Binding by Western blot (GPC3 [11]; amino acids 25 to 358 of human GPC3): bind
B2: 7H1: anti-GPC3 monoclonal antibody; heavy and light chain variable regions SEQ ID NOs: 2 and 3 (antibody, V domains shown)
VH: QVQLQQSGPELVKPGASVKISCKASGYTFTDYYINWVKQKPGQGLEWIGWIYPGSGHTECNETFKGKATLTVDTSSSTAYMQLSSLTSEDTAVYFCTRGYYAPMGYFDYWGQGTTLTVSS
VL: DIQMTQSPSSLSASLGERVSLTCRASQEISGYLSWLQQKPDGTIKRLIYAASTLDSGVPKRFSGSRSGSDYSLTISGLESEDFADYYCLQYASYPYTFGGGTKLEIK
Detection by Western blot (cynomolgus monkey GPC3): detects

Binding by FACS (human GPC3 [1]): not
Binding by FACS (human GPC3 [2]): not
Binding by FACS (human GPC3 [3]): bound
Binding by FACS (human GPC3 [4]): bound
Binding by FACS [6]: not
B3: 4A11: anti-GPC3 monoclonal antibody; heavy and light chain variable regions SEQ ID NOs: 10 and 11 (antibody, V domains shown)
VH: EVQLQQSAAELARPGASVRMSCRTSGYTFTTYTIHWMKQRPGQGLEWIGYINPNGGYTEYNQKFRDRTTLTADKSSSTAYMQLSSLTSEDSAVYYCTRNFDYWGQGTTLTVSS
VL: DIVMTQSPSSMYASLGERVTITCKASQDINSYLSWFQQKPGKSPKTLIYRVNRLVDGVPSRFSGSGSGQDYSLTISSLEYEDVGIYYCLQYDEFPLTLGAGTKLELK
Binding by FACS [5]: bound
